# Experiment: soluble on expression in E. coli; label from the status in PepcDB or PDB records
row,Sequence,soluble on expression in E. coli
1,MNVMDTHPDGRAIAHLAERIRAGLIGHEILVERLMTALLTGGHVLIEGAPGLAKTRAVKRLAQGLDGSFARIQCTPDLMPSDLTGTQVFRRQSESFDFVPGPIFHSLVLVDEINRAPPKVQSALLEAMAEGQVTAGGVTRPLPDPFMVVATQNPIEHEGTFPLPEAQLDRFLLHVDLAMPGAEAERAILDLVEGEAREAALPAGRPLELAELRRARAAVAGIHLAPALRDFIVRLVIATRETEGSPLEGLIEHAVSPRGTLALAASARSRALLHGRDHALPEDVEALAPDALAHRLVPSWRATSEGISARGIVARLLPHVRPWLEHHHHHH,not soluble
2,MGSDKIHHHHHHMLKNDRWITEQAAAGMLEPFQAGLIRHLDPEQHQRPVLSFGCSSFGYDLRLSAKEFLIFRHVPGTVMNPKRFNPANLESTPLHQDEDGEYFILPAHSYGLGVALEKMKVPSNITVICLGKSTYARLGIIVNTTPAEASWEGHLTLEFSNSSGADCRIYANEGICQLLFFEGDPCDTTYSDRQGKYQHQPERVTLARI,not soluble
3,MGSDKIHHHHHHMCRWAAYIGPPVHLDEVVCKPEHSLVAQSVHAFECKTQTNADGFGIAWYDSREEPGLYRDTHPAWSDPNLKSITHQVRSGLFLAHVRASTGTATSRNNCHPFTHGCWSFMHNGQVGGFENFRRRADMIIPDELYSARKGATDSEALFLIAIAEGLYEDPKGAMQRAVGRLEALSREFGHTPHMRIGAAFSCGGALYAVRYASDHLAPTVYSSKSADGTGRLVVSEPLHKGECWEAVPAGSFCRFTADDTEIEDFVPQF,not soluble
4,MSFVVIIPARYASTRLPGKPLVDINGKPMIVHVLERARESGAERIIVATDHEDVARAVEAAGGEVCMTRADHQSGTERLAEVVEKCAFSDDTVIVNVQGDEPMIPATIIRQVADNLAQRQVGMATLAVPIHNAEEAFNPNAVKVVLDAEGYALYFSRATIPWDRDRFAEGLETVGDNFLRHLGIYGYRAGFIRRYVNWQPSPLEHIEMLEQLRVLWYGEKIHVAVAQEVPGTGVDTPEDLERVRAEMRGSHHHHHH,soluble
5,MGSDKIHHHHHHMKKLIAGVLVLTILGSCGNKKTNIDPFASITQEVDSIRHKADSIHQEELPEEPKPTEADESFDDFIYNFASDDALQRQRVKFPLPYYKGDEKTNIEERNWKHDDLFTKQHYYTLLFDKEEDMDLVGDTSLTSVQVEWIFVKTRMVKKYYFERIKGAWILEAINLRPVERNENEDFVEFFSHFAADSLFQSRRVQEPLAFVTSDPDDDFSILETSLDLNQWFAFKPALPTDRLSNINYGQRNDDNSPTKILALKGIGNGFSNILYFRRKAGEWQLYKFEDTSI,not soluble
6,MISRPESSLSGLESSQEVQKKTWNPRNYSARLTENIGLPLILLEKHNPWPAYVAYISPAVTRITEKGWARDLEYIYAAEKNGKPVKRSKHSAVLLKRRKPSKPSELMLKETLSETMLPTWECSTIYVSPTFVPEPAQLQMDVREGPTSNYNKIIFSKRPAMRKLPFGLLQASKEMHTKD,soluble
7,MGSDKIHHHHHHMTYARKPVADAGIGVGIADDPASLSVLHKPGCAAAIWRRHIPSQAKTWLEGLDPSQLPTGRQMVRPDGVRHAVRDFCKRADTPLGDDLDWLQNDMSMLAEMFAQVMSARVLRLRLDAISTNACSRFHIDAVTARLVCTYRGSGTQYGISTDGRAPRRVFQVATGAPILLRGTLWPEDPPSGVLHRSPPIAGTGETRLVMVLDPIFDPDNGP,not soluble
8,MGHHHHHHSHMANSMANSMGITTLDDPLGHMPERFDAFICYCPSDIQFVQEMIRQLEQTNYRLKLCVSDRDVLPGTCVWSIASELIEKRCRRMVVVVSDDYLQSKECDFQTKFALSLSPGAHQKRLIPIKYKAMKKEFPSILRFITVCDYTNPCTKSWFWTRLAKALSLP,soluble
9,GGKFVQAWSQFPAGKWGVEPNPVSVVPTHGEVLNDGKVKEVPWVLELTPMPVSGTTVGKDGINPDEPMTLETVDRFAREIGFKGRYQLNLPKGEDGVWTLSQDSMSYDMISPFADRTVHIDQYSGKILADIRFDDYNPFGKFMAASIALHMGTLG,not soluble
10,MDAVSKAAIRLLDTIGITGVTKVNTYAGPEQEYFLIDKKFYAQRPDLIMTGRTLLGALPPKGQQLEDHYFGSIPDRVLEFMQEVEEELFLLGIPAKTRHNEVAPHQFEIAPIFEQVNLASDHNLLVMEVMRKVADKKGFALLLFEKPFAGINGSGKHNNWSIGIDGGMNLLDPGDTPESNISFLVFLVAVLKGVLKRSAILRASVASIGNDHRLGANEAPPAVITVFLGDLLEKVLDAIESGKVDLKTEKQILDLGLSHVPVLNKDYTDRNRTSPFAFTGNKFEFRAVGSSQPISVPNMVLNTIMAEALDDLNAEILAKIEGGMAKEDAILAAVRDGIIATKAVRYPGDNYSEDLQRAAAERGLPNMKNTPESVRAWTDKDTVSMFVKYGVLTAEEIESRYNVRIERYVKGIDI,not soluble
11,MDQAQRFLRQHPEHADLRIWGLNAFDPSQGNLLLPRLEWRRCGGKATLRLTLFSESSLQHDAIQAKEFIATLVSIKPLPGLHLTTTREQHWPDKTGWTQLIELATKTIAEGELDKVVLARATDLHFASPVNAAAMMAASRRLNLNCYHFYMAFDGENAFLGSSPERLWRRRDKALRTEALAGTVANHPDDKQAQQLGEWLMADDKNQRENMLVVEDICQRLQADTQTLDVLPPQVLRLRKVQHLRRCIWTSLNKADDVICLHQLQPTAAVAGLPRDLARQFIARHEPFTREWYAGSAGYLSLQQSEFCVSLRSAKISGNVVRLYAGAGIVRGSDPEQEWQEIDNKAAGLRTLLQME,not soluble
12,MGKSYKEIIELLDCNQTTIWRNVKKYEEFGLDSLLQETRGGRNHAYMTVEEEKAFLARHLKATEAGEFVTIDALFQVYKKECG,not soluble
13,MAGDGSLVASFGDIDRATTVTTIVAGVGSSNPEGWNTYVDRARTVSASTGSATVLWLGYQAPASIPAAVSGAAANRAAADLQRFQAALQSRNPHQRKVVMGYSYGSTVVGKAASSGELSADALVLVGSPGAGVSHSSQLGAPVYAVTGSADPIGFAGTQYDGIHGTDPTAALFGATVWDSPSTHSGYWNDQEFLGNVAEVVRGKLEHHHHHH,not soluble
14,MENLYFQGLEHHHHHHENSSPYTSEHFHYTVTDIKDLTKLGAIYDKTKKYWVYQGKPVMPDQFTFELLDFLHQLTHLSFSKMKALLERSHSPYYMLNRDRTLKNITETCKACAQVNASKS,soluble
15,AIAGIQAEQSPQNYFEGTVSQPSSRFSTTHKGLSGGYNLGLLVKMELQHSFIGKDNGISYLETKLSGFHHLPVIP,soluble
16,MGSDKIHHHHHHMVSTIGIVSLSSGIIGEDFVKHEVDLGIQRLKDLGLNPIFLPHSLKGLDFIKDHPEARAEDLIHAFSDDSIDMILCAIGGDDTYRLLPYLFENDQLQKVIKQKIFLGFSDTTMNHLMLHKLGIKTFYGQSFLADICELDKEMLAYSLHYFKELIETGRISEIRPSDVWYEERTDFSPTALGTPRVSHTNTGFDLLQGSAQFEGKILGGCLESLYDIFDNSRYADSTELCQKYKLFPDLSDWEGKILLLETSEEKPKPEDFKKMLLTLKDTGIFAVINGLLVGKPMDETFHDDYKEALLDIIDSNIPIVYNLNVGHATPRAIVPFGVHAHVDAQEQVILFDYNK,not soluble
17,MGSDKIHHHHHHMGFEMTRGHLTWNDFKIVMAIANAGSLSGAARSLGVNHATVFRRLGDIERRLGVALFERSRKGYKPSLAGEELANTARIMDEAAHSAERKVAGRDLRPSGEIWVTTTDSLLMGLLAPLFKEFRNRYPDIVLDVAVANEMLNLTRREADVGIRPVNRPPENLIGRRLATVGQAIFGHRNLGLDKGQSIDFLSQQPWIGAGPRLQDSVLEQWMAQKNLADACVFRVDTLVGLLSAVNEGLGLAALPCYLAETCPDIVQLSDPIPELNYDLRKPLKVATHST,not soluble
18,MGSDKIHHHHHHMIRANRHKRVIAVCGKGGVGKTAFTAMLTRSLLESQKAGDLLVIDADPAMGLPNTLGIQVEKTIGHVRDLIINTARAGIGEDRVDLSSRLDYLVLETLYESDDYAFLAMGRTDSQGCFCSVNDLLKKSIRILSERFDTIVIDGEAGLEQMNRQVMNMVDLLIILSDTSTRGLQTVEHITKMVTEDHVIDCTQLGVVFNRVINNELLLTQAAERIGIEVFGMVPQDQSIVHYDLIGQPLTELPADSLALSAIRDFVANHIVQLDCR,not soluble
